This is an account of results in patent US20260242419A1, “A CYCLIC PEPTIDE FOR TRAPPING INTERLEUKIN-1 BETA” (Merck Sharp & Dohme LLC, priority 2023, published 2026).

The target of assay [1] is Recombinant human IL-1β (BioLegend 579404) (human, UniProt P01584 117-269). The experiment in a line: cell-based or functional assay.
Assay [2] has the same target. The experiment in a line: cell-based or functional assay. The source holds these as a separate data set.

Starred links: 1 amine or outer side, 2 acyl side, 3 side chain; linkers in the order of their positions; H or OH if unused. Non-standard residues stand in square brackets, D forms with d. TyrEtNAc = (2S)-3-[4-(2-acetamidoethoxy)phenyl]-2-amino-propanoic acid, CC(=O)NCCOc1ccc(C[C@H](N[*:1])C(=O)[*:2])cc1; Phe3Cl4COOH = (S)-4-(2-amino-2-carboxyethyl)-2-chlorobenzoic acid, O=C([C@H](Cc1ccc(C(=O)[*:3])c(Cl)c1)N[*:1])[*:2]; Phe(4-(5-CO2H-2-pyrimidyl)) = N[C@@H](Cc1ccc(-c2ncc(C(=O)O)cn2)cc1)C(=O)O; Phe(4-(4-Ac-piperazinyl)) = CC(=O)N1CCN(c2ccc(C[C@H](N)C(=O)O)cc2)CC1; Trp(4-Cl)(βS-Me) = C[C@@H](c1c[nH]c2cccc(Cl)c12)[C@H](N)C(=O)O; dPro(4R-(4-pyridylmethyl)) = O=C(O)[C@H]1C[C@@H](Cc2ccncc2)CN1; Trp(βS-Me,4-F) = C[C@@H](c1c[nH]c2cccc(F)c12)[C@H](N)C(=O)O; Bip(4'-COOH) = N[C@@H](Cc1ccc(-c2ccc(C(=O)O)cc2)cc1)C(=O)O; Ala(1-bicyclo(1.1.1)pentyl) = N[C@@H](CC12CC(C1)C2)C(=O)O; dPro(3S-(4-F-Bn)) = O=C(O)[C@@H]1NCC[C@@H]1Cc1ccc(F)cc1; Phe(2-Cl,4-COOH) = N[C@@H](Cc1ccc(C(=O)O)cc1Cl)C(=O)O; 1Nal(3S-Me) = C[C@@H](c1cccc2ccccc12)[C@H](N)C(=O)O; Ala(pyrimidin-5-yl) = N[C@@H](Cc1cncnc1)C(=O)O; Phe(4-COOH) = N[C@@H](Cc1ccc(C(=O)O)cc1)C(=O)O; Pro(cis-4-F) = O=C(O)[C@@H]1C[C@H](F)CN1; Ala(4-THP) = N[C@@H](CC1CCOCC1)C(=O)O; d(αMeD) = C[C@@](N)(CC(=O)O)C(=O)O; 4Pal = N[C@@H](Cc1ccncc1)C(=O)O; aThr = C[C@H](O)[C@H](N)C(=O)O; d(αMeS) = C[C@@](N)(CO)C(=O)O; Dab = NCC[C@H](N)C(=O)O; Aib = CC(C)(N)C(=O)O

B1: SEQ ID NO 370 (peptide)
peptide: cyclo([TyrEtNAc][Ala(1-bicyclo(1.1.1)pentyl)][Phe(4-COOH)]G[Pro(cis-4-F)][Trp(βS-Me,4-F)][Aib]SW[d(αMeD)][Ala(4-THP)]Q[Dab]G[dPro(3S-(4-F-Bn))])
SMILES: CC(=O)NCCOc1ccc(C[C@@H]2NC(=O)[C@H]3[C@@H](Cc4ccc(F)cc4)CCN3C(=O)CNC(=O)[C@H](CCN)NC(=O)[C@H](CCC(N)=O)NC(=O)[C@H](CC3CCOCC3)NC(=O)[C@@](C)(CC(=O)O)NC(=O)[C@H](Cc3c[nH]c4ccccc34)NC(=O)[C@H](CO)NC(=O)C(C)(C)NC(=O)[C@H]([C@@H](C)c3c[nH]c4cccc(F)c34)NC(=O)[C@@H]3C[C@H](F)CN3C(=O)CNC(=O)[C@H](Cc3ccc(C(=O)O)cc3)NC(=O)[C@H](CC34CC(C3)C4)NC2=O)cc1
For the molecule B1, in assay [1], the “MRC5 IC50” value was 0.015 nM.

B2: SEQ ID NO 356 (peptide)
peptide: cyclo([Bip(4'-COOH)][4Pal][Phe(2-Cl,4-COOH)]G[Pro(cis-4-F)][Trp(βS-Me,4-F)][Aib]SW[d(αMeD)][aThr]Q[Dab]G[dPro(4R-(4-pyridylmethyl))])
modifications: ring closure inferred
B2: the “MRC5 IC50” value in assay [2] is 0.011 nM.

B3: SEQ ID NO 364 (peptide)
peptide: cyclo([Bip(4'-COOH)][4Pal][Phe(4-COOH)]G[Pro(cis-4-F)][Trp(βS-Me,4-F)][Aib]SW[d(αMeS)][Ala(4-THP)]Q[Dab]G[dPro(4R-(4-pyridylmethyl))])
SMILES: C[C@@H](c1c[nH]c2cccc(F)c12)[C@@H]1NC(=O)[C@@H]2C[C@H](F)CN2C(=O)CNC(=O)[C@H](Cc2ccc(C(=O)O)cc2)NC(=O)[C@H](Cc2ccncc2)NC(=O)[C@H](Cc2ccc(-c3ccc(C(=O)O)cc3)cc2)NC(=O)[C@H]2C[C@@H](Cc3ccncc3)CN2C(=O)CNC(=O)[C@H](CCN)NC(=O)[C@H](CCC(N)=O)NC(=O)[C@H](CC2CCOCC2)NC(=O)[C@@](C)(CO)NC(=O)[C@H](Cc2c[nH]c3ccccc23)NC(=O)[C@H](CO)NC(=O)C(C)(C)NC1=O
Consider B3, for which, in assay [1], the “MRC5 IC50” value turned out to be 0.015 nM.

B4: SEQ ID NO 369 (peptide)
peptide: cyclo([TyrEtNAc][4Pal][Phe(4-COOH)]G[Pro(cis-4-F)][Trp(βS-Me,4-F)][Aib]SW[d(αMeD)][Ala(pyrimidin-5-yl)]Q[Dab]G[dPro(3S-(4-F-Bn))])
SMILES: CC(=O)NCCOc1ccc(C[C@@H]2NC(=O)[C@H]3[C@@H](Cc4ccc(F)cc4)CCN3C(=O)CNC(=O)[C@H](CCN)NC(=O)[C@H](CCC(N)=O)NC(=O)[C@H](Cc3cncnc3)NC(=O)[C@@](C)(CC(=O)O)NC(=O)[C@H](Cc3c[nH]c4ccccc34)NC(=O)[C@H](CO)NC(=O)C(C)(C)NC(=O)[C@H]([C@@H](C)c3c[nH]c4cccc(F)c34)NC(=O)[C@@H]3C[C@H](F)CN3C(=O)CNC(=O)[C@H](Cc3ccc(C(=O)O)cc3)NC(=O)[C@H](Cc3ccncc3)NC2=O)cc1
With B4, the “MRC5 IC50” value in assay [1] came to 0.021 nM.

B5: SEQ ID NO 368 (peptide)
peptide: cyclo([TyrEtNAc][4Pal][Phe(4-COOH)]G[Pro(cis-4-F)][Trp(βS-Me,4-F)][Aib]SW[Aib][Ala(pyrimidin-5-yl)]Q[Dab]G[dPro(4R-(4-pyridylmethyl))])
SMILES: CC(=O)NCCOc1ccc(C[C@@H]2NC(=O)[C@H]3C[C@@H](Cc4ccncc4)CN3C(=O)CNC(=O)[C@H](CCN)NC(=O)[C@H](CCC(N)=O)NC(=O)[C@H](Cc3cncnc3)NC(=O)C(C)(C)NC(=O)[C@H](Cc3c[nH]c4ccccc34)NC(=O)[C@H](CO)NC(=O)C(C)(C)NC(=O)[C@H]([C@@H](C)c3c[nH]c4cccc(F)c34)NC(=O)[C@@H]3C[C@H](F)CN3C(=O)CNC(=O)[C@H](Cc3ccc(C(=O)O)cc3)NC(=O)[C@H](Cc3ccncc3)NC2=O)cc1
For the molecule B5, in assay [1], the “MRC5 IC50” value was 0.022 nM.

B6: SEQ ID NO 367 (peptide)
peptide: cyclo([TyrEtNAc][4Pal][Phe2Cl4COOH]G[Pro(cis-4-F)][Trp(βS-Me,4-F)][Aib]SW[Aib][Ala(pyrimidin-5-yl)]Q[Dab]G[dPro(4R-(4-pyridylmethyl))])
For the molecule B6, in assay [1], the “MRC5 IC50” value was determined as 0.017 nM.

B7: SEQ ID NO 366 (peptide)
peptide: cyclo([Phe(4-(4-Ac-piperazinyl))][4Pal][Phe(4-COOH)]G[Pro(cis-4-F)][Trp(βS-Me,4-F)][Aib]SW[Aib][Ala(pyrimidin-5-yl)]Q[Dab]G[dPro(4R-(4-pyridylmethyl))])
SMILES: CC(=O)N1CCN(c2ccc(C[C@@H]3NC(=O)[C@H]4C[C@@H](Cc5ccncc5)CN4C(=O)CNC(=O)[C@H](CCN)NC(=O)[C@H](CCC(N)=O)NC(=O)[C@H](Cc4cncnc4)NC(=O)C(C)(C)NC(=O)[C@H](Cc4c[nH]c5ccccc45)NC(=O)[C@H](CO)NC(=O)C(C)(C)NC(=O)[C@H]([C@@H](C)c4c[nH]c5cccc(F)c45)NC(=O)[C@@H]4C[C@H](F)CN4C(=O)CNC(=O)[C@H](Cc4ccc(C(=O)O)cc4)NC(=O)[C@H](Cc4ccncc4)NC3=O)cc2)CC1
Turning to B7, the “MRC5 IC50” value in assay [1] stood at 0.021 nM.

B8: SEQ ID NO 358 (peptide)
peptide: cyclo([Bip(4'-COOH)][4Pal][Phe(4-COOH)]G[Pro(cis-4-F)][Trp(4-Cl)(βS-Me)][Aib]SW[d(αMeD)][aThr]Q[Dab]G[dPro(4R-(4-pyridylmethyl))])
modifications: ring closure inferred
Regarding B8, in assay [2], the “MRC5 IC50” value turned out to be 0.013 nM.

B9: SEQ ID NO 361 (peptide)
peptide: cyclo([Phe(4-(5-CO2H-2-pyrimidyl))][4Pal][Phe3Cl4COOH]G[Pro(cis-4-F)][Trp(βS-Me,4-F)][Aib]SW[d(αMeD)][Ala(4-THP)]Q[Dab]G[dPro(4R-(4-pyridylmethyl))])
modifications: ring closure inferred
Regarding B9, the “MRC5 IC50” value in assay [2] was determined as 0.022 nM.

B10: SEQ ID NO 365 (peptide)
peptide: cyclo([Phe(4-(4-Ac-piperazinyl))][4Pal][Phe(2-Cl,4-COOH)]G[Pro(cis-4-F)][Trp(βS-Me,4-F)][Aib]SW[Aib][Ala(pyrimidin-5-yl)]Q[Dab]G[dPro(4R-(4-pyridylmethyl))])
SMILES: CC(=O)N1CCN(c2ccc(C[C@@H]3NC(=O)[C@H]4C[C@@H](Cc5ccncc5)CN4C(=O)CNC(=O)[C@H](CCN)NC(=O)[C@H](CCC(N)=O)NC(=O)[C@H](Cc4cncnc4)NC(=O)C(C)(C)NC(=O)[C@H](Cc4c[nH]c5ccccc45)NC(=O)[C@H](CO)NC(=O)C(C)(C)NC(=O)[C@H]([C@@H](C)c4c[nH]c5cccc(F)c45)NC(=O)[C@@H]4C[C@H](F)CN4C(=O)CNC(=O)[C@H](Cc4ccc(C(=O)O)cc4Cl)NC(=O)[C@H](Cc4ccncc4)NC3=O)cc2)CC1
As for B10, the “MRC5 IC50” value in assay [1] worked out at 0.023 nM.

B11: SEQ ID NO 357 (peptide)
peptide: cyclo([Bip(4'-COOH)][4Pal][Phe(4-COOH)]G[Pro(cis-4-F)][1Nal(3S-Me)][Aib]SW[d(αMeD)][aThr]Q[Dab]G[dPro(4R-(4-pyridylmethyl))])
modifications: ring closure inferred
B11: the “MRC5 IC50” value in assay [2] amounted to 0.017 nM.

B12: SEQ ID NO 363 (peptide)
peptide: cyclo([TyrEtNAc][4Pal][Phe(2-Cl,4-COOH)]G[Pro(cis-4-F)][1Nal(3S-Me)][Aib]SW[d(αMeD)][Ala(4-THP)]Q[Dab]G[dPro(4R-(4-pyridylmethyl))])
SMILES: CC(=O)NCCOc1ccc(C[C@@H]2NC(=O)[C@H]3C[C@@H](Cc4ccncc4)CN3C(=O)CNC(=O)[C@H](CCN)NC(=O)[C@H](CCC(N)=O)NC(=O)[C@H](CC3CCOCC3)NC(=O)[C@@](C)(CC(=O)O)NC(=O)[C@H](Cc3c[nH]c4ccccc34)NC(=O)[C@H](CO)NC(=O)C(C)(C)NC(=O)[C@H]([C@@H](C)c3cccc4ccccc34)NC(=O)[C@@H]3C[C@H](F)CN3C(=O)CNC(=O)[C@H](Cc3ccc(C(=O)O)cc3Cl)NC(=O)[C@H](Cc3ccncc3)NC2=O)cc1
Consider B12, for which, in assay [1], the “MRC5 IC50” value stood at 0.021 nM.

B13: SEQ ID NO 355 (peptide)
peptide: cyclo([Bip(4'-COOH)][4Pal][Phe(2-Cl,4-COOH)]G[Pro(cis-4-F)][Trp(4-Cl)(βS-Me)][Aib]SW[d(αMeD)][aThr]Q[Dab]G[dPro(4R-(4-pyridylmethyl))])
modifications: ring closure inferred
Turning to B13, the “MRC5 IC50” value in assay [2] is 0.013 nM.

B14: SEQ ID NO 360 (peptide)
peptide: cyclo([Phe(4-(5-CO2H-2-pyrimidyl))][4Pal][Phe(2-Cl,4-COOH)]G[Pro(cis-4-F)][1Nal(3S-Me)][Aib]SW[d(αMeD)][Ala(4-THP)]Q[Dab]G[dPro(4R-(4-pyridylmethyl))])
modifications: ring closure inferred
For B14, the “MRC5 IC50” value in assay [2] amounted to 0.019 nM.

B15: SEQ ID NO 362 (peptide)
peptide: cyclo([TyrEtNAc][4Pal][Phe(4-COOH)]G[Pro(cis-4-F)][Trp(4-Cl)(βS-Me)][Aib]SW[d(αMeD)][Ala(4-THP)]Q[Dab]G[dPro(4R-(4-pyridylmethyl))])
SMILES: CC(=O)NCCOc1ccc(C[C@@H]2NC(=O)[C@H]3C[C@@H](Cc4ccncc4)CN3C(=O)CNC(=O)[C@H](CCN)NC(=O)[C@H](CCC(N)=O)NC(=O)[C@H](CC3CCOCC3)NC(=O)[C@@](C)(CC(=O)O)NC(=O)[C@H](Cc3c[nH]c4ccccc34)NC(=O)[C@H](CO)NC(=O)C(C)(C)NC(=O)[C@H]([C@@H](C)c3c[nH]c4cccc(Cl)c34)NC(=O)[C@@H]3C[C@H](F)CN3C(=O)CNC(=O)[C@H](Cc3ccc(C(=O)O)cc3)NC(=O)[C@H](Cc3ccncc3)NC2=O)cc1
As for B15, in assay [1], the “MRC5 IC50” value was 0.023 nM.

B16: SEQ ID NO 354 (peptide)
peptide: cyclo([Bip(4'-COOH)][4Pal][Phe(2-Cl,4-COOH)]G[Pro(cis-4-F)][1Nal(3S-Me)][Aib]SW[d(αMeD)][aThr]Q[Dab]G[dPro(4R-(4-pyridylmethyl))])
modifications: ring closure inferred
As to B16, in assay [2], the “MRC5 IC50” value is 0.014 nM.

B17: SEQ ID NO 359 (peptide)
peptide: cyclo([Bip(4'-COOH)][4Pal][Phe(4-COOH)]G[Pro(cis-4-F)][Trp(βS-Me,4-F)][Aib]SW[d(αMeD)][aThr]Q[Dab]G[dPro(4R-(4-pyridylmethyl))])
modifications: ring closure inferred
For the molecule B17, the “MRC5 IC50” value in assay [2] turned out to be 0.011 nM.
